The test has as its target ribosomal associated protein L22 (human, UniProt P35268). The test can be described thus: co-immunoprecipitation from 293 cell lysate, Western blot. In general terms: A western blot detects proteins with antibodies after separation by electrophoresis.

Procedure: Multi-tissue northern blots (Clontech) were hybridized with a 0.7 kb BamHI-EcoRI hStau cDNA probe according to the manufacturer's procedures. In particular, blots were hybridized at 68° C. in ExpressHyb solution (Clontech) for 1 hour with shaking. Blots were washed several times in 2×SSC, 0.05% SDS at room temperature, with a final wash in 0.1×SSC and 0.1% SDS at 60° C. for about 40 minutes. The blots then were re-probed with an actin probe without stripping the hStau signal. Signal intensity was quantified on a BAS 1500 PhosphorImager system (Fuji Medical System, Inc, Stamford, Conn.).

B1: human staufen (hStau) polypeptide (other)
chain: MKLGKKPMYKPVDPYSRMRSTYNYNMRGGAYPPRYFYPFPVPPLLYQVELSVGGQQFNGKGKTRQAAKHDAAAKALRILQNEPLPERLEVNGRESEEENLNKSEISQVFEIALKRNLPVNFEVARESGPPHMKNFVTKVSVGEFVGEGEGKSKKISKKNAAIAVLEELKKLPPLPAVERVKPRIKKKTKPIVKPQTSPEYGQGINPISRLAQIQQAKKEKEPEYTLLTERGLPRRREFVMQVKVGNHTAEGTGTNKKVAKRNAAENMLEILGFKVPQAQPTKPALKSEEKTPIKKPGDGRKVTFFEPGSGDENGTSNKEDEFRMPYLSHQQLPAGILPMVPEVAQAVGVSQGHHTKDFTRAAPNPAKATVTAMIARELLYGGTSPTAETILKNNISSGHVPHGPLTRPSEQLDYLSRVQGFQVEYKDFPKNNKNEFVSLINCSSQPPLISHGIGKDVESCHDMAALNILKLLSELDQQSTEMPRTGNGPMSVCGRC
On to B1, for which the binding result was “no binding”.
